We go through one variant from IntAct's records for PubMed 17301792.

Sequences and labels used below:
B1: Translationally-controlled tumor protein homolog (Drosophila melanogaster (Fruit fly)), Q9VGS2 (parent)
chain: MKIYKDIITGDEMFADTYKMKLVDDVIYEVYGKLITRQGDDIKLEGANASAEEADEGTDITSESGVDVVLNHRLTECFAFGDKKSYTLYLKDYMKKVLAKLEEKSPDQVDIFKTNMNKAMKDILGRFKELQFFTGESMDCDGMVALVEYREINGDSVPVLMFFKHGLEEEKC
partner: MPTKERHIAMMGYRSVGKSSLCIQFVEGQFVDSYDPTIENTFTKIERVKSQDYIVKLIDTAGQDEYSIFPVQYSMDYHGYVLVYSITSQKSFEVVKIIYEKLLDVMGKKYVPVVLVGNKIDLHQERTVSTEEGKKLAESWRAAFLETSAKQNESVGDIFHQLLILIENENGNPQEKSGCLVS

Variants of B1 are the subject of the first test. Particulars: with rheb_drome Rheb.
Take E12V: the “effect of a mutation on the interaction” value is reported as “decreasing interaction strength”.

Variants of B1 are the subject of a further test. Particulars: with rheb_drome Rheb. This is another data set of the same source.
Regarding E12V, the “effect of a mutation on the interaction” value was “disrupting interaction strength”.
